Measurements: publication PMC4520625 (Biochemistry, 2015)
Ends that are not written are not given here. * marks the point of attachment. Galβ1,3GalNAcα = CC(=O)N[C@@H]1[C@@H](O[C@@H]2O[C@H](CO)[C@H](O)[C@H](O)[C@H]2O)[C@@H](O)[C@@H](CO)O[C@@H]1*

Columns and labels:
[1] = molecular target: full-length human galectin-3 (human, UniProt P17931 1-250); test: ITC
His-tagged galectin-3 = His-tagged galectin-3 (human, UniProt P17931 1-250); test: AlphaScreen or HTRF
His-tagged galectin-3, sequence (P17931 whole entry): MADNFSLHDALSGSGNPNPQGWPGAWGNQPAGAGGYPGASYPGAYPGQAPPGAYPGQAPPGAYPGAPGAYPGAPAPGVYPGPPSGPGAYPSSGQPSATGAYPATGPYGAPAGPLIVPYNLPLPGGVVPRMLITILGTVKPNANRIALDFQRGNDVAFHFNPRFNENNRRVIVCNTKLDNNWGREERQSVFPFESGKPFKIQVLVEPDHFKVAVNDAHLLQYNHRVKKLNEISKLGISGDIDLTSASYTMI

full-length human galectin-3, sequence (P17931 whole entry): as above

| Ka [1] | dH [1] | stoichiometry N [1] | IC50 (His-tagged galectin-3) | Binder |
| --- | --- | --- | --- | --- |
| 2900 M⁻¹ | -1.32 kcal/mol | 0.97 |  | HGVT(Galβ1,3GalNAcα)SAPD [MUC1(1-8)-Thr4 truncated glycopeptide carrying the TF antigen] |
|  |  |  | 2.3 nM | asialofetuin (ASF), unlabeled (natural protein, UniProt P12763 19-359, looked up, three complex-type N-glycans (asialo)) IPLDPVAGYKEPACDDPDTEQAALAAVDYINKHLPRGYKHTLNQIDSVKVWPRRPTGEVYDIEIDTLETTCHVLDPTPLANCSVRQQTQHAVEGDCDIHVLKQDGQFSVLFTKCDSSPDSAEDVRKLCPDCPLLAPLNDSRVVHAVEVALATFNAESNGSYLQLVEISRAQFVPLPVSVSVEFAVAATDCIAKEVVDPTKCNLLAEKQYGFCKGSVIQKALGGEDVRVTCTLFQTQPVIPQPQPDGAEAEAPSAVPDAAGPTPSAAGPPVASVVVGPSVVAVPLPLHRAHYDLRHTFSGVASVESSSGEAFHVGKTPIVGQPSIPGGPVRLCPGRIRYFKI |
| 7600 M⁻¹ | -1.79 kcal/mol | 0.87 |  | HGVT(Galβ1,3GalNAcα)SAPDTRPAPGS [MUC1(1-15)-Thr4 truncated glycopeptide carrying the TF antigen] |
